Assay results from IntAct's records for PubMed 17909014.

How the values were obtained:
limd1_mouse Limd1 = limd1_mouse Limd1 (UniProt Q9QXD8)
ajuba_mouse Ajuba = ajuba_mouse Ajuba (UniProt Q91XC0)

Chain of limd1_mouse Limd1 (Q9QXD8 whole entry): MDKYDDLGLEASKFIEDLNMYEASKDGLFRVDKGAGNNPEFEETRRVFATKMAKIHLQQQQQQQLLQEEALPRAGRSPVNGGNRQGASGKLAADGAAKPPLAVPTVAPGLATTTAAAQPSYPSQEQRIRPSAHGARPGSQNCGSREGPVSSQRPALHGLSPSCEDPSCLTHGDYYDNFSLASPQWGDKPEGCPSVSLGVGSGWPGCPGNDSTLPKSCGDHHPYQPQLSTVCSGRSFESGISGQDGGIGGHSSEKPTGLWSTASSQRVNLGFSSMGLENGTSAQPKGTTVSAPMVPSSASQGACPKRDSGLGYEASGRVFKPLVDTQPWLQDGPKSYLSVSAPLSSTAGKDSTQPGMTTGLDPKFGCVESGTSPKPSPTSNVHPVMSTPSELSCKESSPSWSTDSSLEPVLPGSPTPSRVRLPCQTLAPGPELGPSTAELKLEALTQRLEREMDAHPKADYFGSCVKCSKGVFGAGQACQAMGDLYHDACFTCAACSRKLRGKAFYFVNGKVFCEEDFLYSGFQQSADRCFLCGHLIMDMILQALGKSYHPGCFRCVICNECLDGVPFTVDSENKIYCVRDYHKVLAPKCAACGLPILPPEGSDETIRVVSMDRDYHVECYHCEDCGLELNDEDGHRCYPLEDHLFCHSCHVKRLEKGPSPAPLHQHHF

| Substance | effect of a mutation on the interaction (limd1_mouse Limd1) | effect of a mutation on the interaction (ajuba_mouse Ajuba) |
| --- | --- | --- |
| Zinc finger protein Gfi-1 (Homo sapiens), Q99684 F5A | disrupting interaction | disrupting interaction |
| Zinc finger protein Gfi-1 (Homo sapiens), Q99684 F5A;L6A;V7A | disrupting interaction | disrupting interaction |
| Zinc finger protein Gfi-1 (Homo sapiens), Q99684 K10A;K11A | disrupting interaction | disrupting interaction |
